From patent publication US20250090700A1 (published 2025) come the findings set out here.

The assay deals with synthetic sugar epitope. The experiment in a line: Biacore (SPR).

B1: IgG1 (antibody, V domains shown)
VH: QVQLVQSGAEVKKPGASVKVSCKASGFSFTTYWITWVRQAPGQGLEWIGMIHPSDAETRLSQTFKDKATLTADKSTSTAYMELSSLRSEDTAVYYCARDFDVWGQGTLVTVSS
VL: DVVMTQSPLSLPVTLGQPASISCRSSQNIVHQNGQTYLGWYLQKPGQSPQLLIFRVSNRFSGVPDRFSGSGSGTDFTLKISRVEAEDVGVYYCFQGSHIPRTFGQGTRLEIK
For orientation: Kd means the constant that tells how readily two partners part at equilibrium. The molecule B1 showed a Kd of 3.9 nM.

B2: IgG4PE (antibody, V domains shown)
VH: B1 VH
VL: B1 VL
As for B2, the dissociation constant (Kd) came out at 3.1 nM.
